Measurements taken from paper PMC11542177, “Recurrent Neurodevelopmentally Associated Variants of the Pre-mRNA Splicing Factor U2AF2 Alter RNA Binding Affinities and Interactions”.

Columns and labels:
Test in all cases: fluorescence anisotropy; Fluorescence anisotropy: 25 nM RNA, 100 mM NaCl, 25 mM HEPES pH 6.8, 0.2 mM TCEP; temperature not stated; three replicates
Conditions in all cases: protein: recombinant; label: 5'-fluorescein; single strand
U2AF2 12L Arg150His = U2AF2 12L Arg150His (UniProt P26368 141-342, R150H)
U2AF2 12L Arg150Cys = U2AF2 12L Arg150Cys (UniProt P26368 141-342, R150C)
U2AF2 12L Arg149Trp = U2AF2 12L Arg149Trp (UniProt P26368 141-342, R149W)
U2AF2 12L WT = U2AF2 12L WT (UniProt P26368 141-342)
Sequence of U2AF2 12L WT (P26368 141-342): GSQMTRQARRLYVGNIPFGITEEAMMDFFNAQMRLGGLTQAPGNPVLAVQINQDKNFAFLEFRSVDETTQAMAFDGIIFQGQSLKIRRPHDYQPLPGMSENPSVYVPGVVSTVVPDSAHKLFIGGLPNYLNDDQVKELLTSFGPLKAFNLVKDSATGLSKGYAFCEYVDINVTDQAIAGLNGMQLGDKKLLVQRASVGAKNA

Sequence of U2AF2 12L Arg150His (P26368 141-342 R150H): as the sequence (P26368 141-342) above, with R10H counted along it
Sequence of U2AF2 12L Arg149Trp (P26368 141-342 R149W): as the sequence (P26368 141-342) above, with R9W counted along it
Sequence of U2AF2 12L Arg150Cys (P26368 141-342 R150C): as the sequence (P26368 141-342) above, with R10C counted along it

B1: nine-uridine consensus Py tract RNA (ssRNA)
RNA: UUUUUUUUU
binding signal (U2AF2 12L Arg150His): ~4 fold decrease in affinity vs WT | binding signal (U2AF2 12L Arg150Cys): ~5 fold decrease in affinity vs WT | binding signal (U2AF2 12L Arg149Trp): ~3 fold decrease in affinity vs WT | binding result (U2AF2 12L WT): binds
